Test results: US20190225680A1 (NASCIENT, published 2019)

T1: mouse TNC rCd4-His-FBG (rat; mouse, UniProt P05540 207-386)
T1 construct: domain: domains 3 and 4; also called Mu TNC; mouse TNC FBG
T1 sequence: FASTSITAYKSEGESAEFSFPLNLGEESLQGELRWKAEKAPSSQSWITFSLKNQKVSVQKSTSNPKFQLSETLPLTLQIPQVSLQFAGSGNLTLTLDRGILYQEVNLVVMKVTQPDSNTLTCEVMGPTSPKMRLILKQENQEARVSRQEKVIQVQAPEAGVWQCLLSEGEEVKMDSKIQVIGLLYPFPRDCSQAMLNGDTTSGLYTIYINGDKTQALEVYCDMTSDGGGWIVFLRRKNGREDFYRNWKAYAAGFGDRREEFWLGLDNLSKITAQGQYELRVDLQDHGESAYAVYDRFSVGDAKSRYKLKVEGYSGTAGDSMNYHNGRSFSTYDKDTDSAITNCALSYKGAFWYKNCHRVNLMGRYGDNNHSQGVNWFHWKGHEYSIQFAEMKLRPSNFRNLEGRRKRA

T2: rat TNC rCd4-His-FBG (rat) (UniProt P05540)
T2 sequence: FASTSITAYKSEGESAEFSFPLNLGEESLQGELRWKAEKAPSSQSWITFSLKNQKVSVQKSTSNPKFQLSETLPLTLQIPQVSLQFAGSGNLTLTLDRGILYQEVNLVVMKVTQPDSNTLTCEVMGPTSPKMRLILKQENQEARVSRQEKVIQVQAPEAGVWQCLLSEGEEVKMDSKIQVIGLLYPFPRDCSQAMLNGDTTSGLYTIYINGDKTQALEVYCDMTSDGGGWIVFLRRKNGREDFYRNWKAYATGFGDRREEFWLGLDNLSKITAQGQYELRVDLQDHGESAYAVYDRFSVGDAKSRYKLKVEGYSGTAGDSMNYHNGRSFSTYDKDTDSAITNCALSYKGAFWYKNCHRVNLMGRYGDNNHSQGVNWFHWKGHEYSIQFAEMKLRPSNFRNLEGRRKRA

T3: human TNR rCd4-His-FBG (rat; human)
T3 sequence: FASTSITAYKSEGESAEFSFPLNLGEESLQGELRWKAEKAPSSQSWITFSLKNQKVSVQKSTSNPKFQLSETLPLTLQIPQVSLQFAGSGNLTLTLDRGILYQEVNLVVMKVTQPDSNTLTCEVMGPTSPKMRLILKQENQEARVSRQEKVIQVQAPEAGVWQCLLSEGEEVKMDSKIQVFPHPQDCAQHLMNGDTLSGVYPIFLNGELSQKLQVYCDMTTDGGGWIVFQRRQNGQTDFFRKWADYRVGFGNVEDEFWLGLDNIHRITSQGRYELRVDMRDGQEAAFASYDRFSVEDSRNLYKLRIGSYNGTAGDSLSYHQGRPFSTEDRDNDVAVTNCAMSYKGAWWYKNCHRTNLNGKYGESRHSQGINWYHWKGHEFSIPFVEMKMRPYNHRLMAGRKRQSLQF

T4: dog TNC rCD4-His-FBG (rat; dog)
T4 sequence: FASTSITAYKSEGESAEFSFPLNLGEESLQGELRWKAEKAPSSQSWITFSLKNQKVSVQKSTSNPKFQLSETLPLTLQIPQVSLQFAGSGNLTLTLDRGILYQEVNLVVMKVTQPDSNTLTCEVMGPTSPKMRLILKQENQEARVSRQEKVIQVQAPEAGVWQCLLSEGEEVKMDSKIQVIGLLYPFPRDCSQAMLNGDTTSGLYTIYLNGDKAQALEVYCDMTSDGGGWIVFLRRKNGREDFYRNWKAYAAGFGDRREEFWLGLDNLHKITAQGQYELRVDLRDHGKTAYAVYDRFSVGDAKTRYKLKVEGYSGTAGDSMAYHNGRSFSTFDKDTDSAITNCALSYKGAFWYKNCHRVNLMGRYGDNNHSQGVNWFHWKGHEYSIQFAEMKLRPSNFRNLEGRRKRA

T5: human TNC rCd4-His-FBG (rat; human)
T5 sequence: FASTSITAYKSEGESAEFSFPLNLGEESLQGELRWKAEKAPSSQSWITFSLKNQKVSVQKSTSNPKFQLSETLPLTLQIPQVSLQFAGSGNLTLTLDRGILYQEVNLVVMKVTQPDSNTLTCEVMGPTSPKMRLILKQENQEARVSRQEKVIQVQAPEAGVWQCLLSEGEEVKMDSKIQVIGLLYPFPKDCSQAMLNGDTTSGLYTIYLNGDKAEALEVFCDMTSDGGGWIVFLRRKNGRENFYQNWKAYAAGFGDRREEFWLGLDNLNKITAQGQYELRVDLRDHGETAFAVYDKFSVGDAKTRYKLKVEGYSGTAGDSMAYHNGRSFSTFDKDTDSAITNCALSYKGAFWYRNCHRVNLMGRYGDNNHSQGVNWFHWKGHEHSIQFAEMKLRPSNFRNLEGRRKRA

T6: human TNR rCd4-His-FBG (rat; human, UniProt P05540 207-386)
T6 construct: domain: domains 3 and 4; also called Hu TNR; human TNR FBG
T6 sequence: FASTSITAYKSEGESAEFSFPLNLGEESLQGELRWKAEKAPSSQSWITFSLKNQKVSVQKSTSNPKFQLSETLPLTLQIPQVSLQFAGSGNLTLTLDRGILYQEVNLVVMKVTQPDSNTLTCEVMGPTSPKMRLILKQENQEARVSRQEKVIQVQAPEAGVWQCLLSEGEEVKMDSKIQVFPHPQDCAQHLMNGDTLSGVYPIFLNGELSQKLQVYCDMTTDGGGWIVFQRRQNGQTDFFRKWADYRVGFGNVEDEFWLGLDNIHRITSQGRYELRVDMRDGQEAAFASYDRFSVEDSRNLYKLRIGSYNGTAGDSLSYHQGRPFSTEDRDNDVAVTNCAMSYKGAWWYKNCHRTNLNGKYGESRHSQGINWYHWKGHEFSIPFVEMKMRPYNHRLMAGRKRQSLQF


Legend:
mouse TNC rCd4-His-FBG [1] = target: T1, mouse TNC rCd4-His-FBG; assay: SPR off-rate screen, 25 C, IgG4 from supernatant captured on anti-human Fc, 15 nM antigen, 1:1 fit
[2] = target: T2, rat TNC rCd4-His-FBG (rat); assay: SPR, BIAcore T100, 37 C, IgG4 captured on anti-human Fc, rCD4-His-FBG injected, 1:1 fit
[3] = target: T3, human TNR rCd4-His-FBG (rat; human); assay: as above
[4] = target: T4, dog TNC rCD4-His-FBG (rat; dog); assay: as above
mouse TNC rCd4-His-FBG [5] = target: T1, mouse TNC rCd4-His-FBG; assay: as above
[6] = target: T5, human TNC rCd4-His-FBG (rat; human); assay: as above
[7] = target: T3, human TNR rCd4-His-FBG (rat; human); assay: SPR off-rate screen, 25 C, IgG4 from supernatant captured on anti-human Fc, 100 nM antigen, 1:1 fit
[8] = target: T3, human TNR rCd4-His-FBG (rat; human); assay: SPR, 37 C, purified IgG4 captured on anti-human Fc
human TNR rCd4-His-FBG = target: T6, human TNR rCd4-His-FBG; assay: SPR, BIAcore T100, 25 C, Fab captured, rCd4-FBG injected
Method: Experiments were performed using a BIAcore T100 instrument with CM5 sensor chip according to the protocol provided with the Human Fab Capture Kit (GE, 28-9583-25). Varying concentrations of rCd4-FBG were injected into a flow-cell with immobilised Fab and a reference flow-cell. After reference signal subtraction, the data was fitted to a global 1:1 fit using theT100 BIAevaluation software.

Row | koff (mouse TNC rCd4-His-FBG [1]) | Kd [2] | koff [2] | kon [2] | Kd [3] | koff [3] | kon [3] | Kd [4] | koff [4] | kon [4] | Kd (mouse TNC rCd4-His-FBG [5]) | koff (mouse TNC rCd4-His-FBG [5]) | kon (mouse TNC rCd4-His-FBG [5]) | Kd [6] | koff [6] | kon [6] | koff [7] | fold lower affinity for human TNR FBG than for human TNC FBG [8] | fold lower affinity for human TNR FBG than for human TNC FBG (human TNR rCd4-His-FBG) | Binder
1 | 3.3e-06 s⁻¹ | 1.22 nM | 0.00473 s⁻¹ | 3.89e+06 M⁻¹ s⁻¹ | 35.8 nM | 0.0431 s⁻¹ | 1.2e+06 M⁻¹ s⁻¹ | 1.8 nM | 0.0108 s⁻¹ | 5.97e+06 M⁻¹ s⁻¹ | 0.46 nM | 0.000445 s⁻¹ | 972000 M⁻¹ s⁻¹ | 0.072 nM | 0.00083 s⁻¹ | 1.16e+07 M⁻¹ s⁻¹ | 0.012 s⁻¹ | > 70 fold |  | 165_13_C3 IgG4 (antibody, V domains shown) VH: QVQLVESGGGLVQPGRSLRLSCAASGFTFDDYAMHWVRQAPGKGLEWVSGISGSGGSTYYADSVKGRFTISRDNAKNSLYLQMNSLRAEDTALYYCAKSYQSDEDAFDIWGQGTMVTVSS VL: DIQMTQSPASLPTPVGDRVTITCRASQYIQGFLNWYQQKPGKAPKLLIYDASNLETGVPSRFSGSGSGTDFTLTISSLQPEDFATYYCQQSYSTPQTFGQGTKVDIKR
2 |  |  |  |  |  |  |  |  |  |  |  |  |  |  |  |  |  |  | > 60 fold | B12 Fab (Fab, V domains shown, Monomeric Fab from a dual promoter Fab vector; also called B12 parental antibody) VH: QVQLVESGGGLVQPGRSLRLSCAASGFTFDDYAMHWVRQAPGKGLEWVSGISGSGGSTYYADSVKGRFTISRDNAKNSLYLQMNSLRAEDTALYYCAKDISAVPDTFDIWGQGTMVTVSS VL: DIQMTQSPASLPTPVGDRVTITCRASQYIQGFLNWYQQKPGKAPKLLIYDASNLETGVPSRFSGSGSGTDFTLTISSLQPEDFATYYCQQSYSTPQTFGQGTKVDIKR
